Reference: US12552834 (MIT, dated 2026)

B1: PCARE-Dual peptide (designed binder)
peptide: MAGGLNDIFEAQKIEWHEDTGGSSHHHHHHGSGSGSDSEVNQEAKPEVKPEVKPETHINLKVSDGSSEIFFKIKKTTPLRRLMEAFAKRQGKEMDSLTFLYDGIEIQADQTPEDLDMEDNDIIEAHREQIGGSGSGNLEHLPPPPMEVLMDKSFASLESGSGSPPPPPF
modifications: biotinylated (BAP tag)
notes: Engineered peptide, tested as a SUMO fusion in BLI
B2: PCARE B (PCARE826-848) (peptide)
peptide: MAGGLNDIFEAQKIEWHEDTGGSSHHHHHHGSGSGSDSEVNQEAKPEVKPEVKPETHINLKVSDGSSEIFFKIKKTTPLRRLMEAFAKRQGKEMDSLTFLYDGIEIQADQTPEDLDMEDNDIIEAHREQIGGSGSGNLEHLPPPPMEVLMDKSFASLES
modifications: biotinylated (BAP tag)

Legend:
[1] = target: T1, ENAH EVH1 domain (monomeric, wild type) (human, UniProt Q03173 1-111 (mouse entry)); test: BLI
T1 construct: ENAH residue numbers in the text count from the Met at position 25 of this entry; also called ENAH EVH1 WT; Mena EVH1 WT
T1 sequence (Q03173 other isoform, or with tags, fused parts or gaps limits assumed): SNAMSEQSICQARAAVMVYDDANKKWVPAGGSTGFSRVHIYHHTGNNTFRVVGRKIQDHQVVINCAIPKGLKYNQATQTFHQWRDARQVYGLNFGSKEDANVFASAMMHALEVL
Description: (§1) All BLI experiments were performed with 2 replicates on an Octet Red96 instrument (ForteBio). […] The loaded tips were immersed in a solution of ENAH EVH1 domain at a relevant dilution series in BLI buffer at an orbital shake speed of 1000 rpm and run until the binding signal plateaued. ENAH-bound tips were subsequently placed into BLI buffer only for dissociation and run until the binding signal plateaued. K_D values were obtained through steady state analysis. […] The association phases were then fit to a one-phase binding model in Prism and the equilibrium steady-state binding signal values from that fit were plotted against ENAH concentration and fit to a single-site specific binding model in Prism to obtain dissociation constants. Errors reported are the standard deviation of two replicates.

[2] = target: T1, ENAH EVH1 domain (monomeric, wild type); test: BLI dissociation curves
Description: (§2) (C) Peptide binding and dissociation curves measured by BLI. Blue, orange, green, red, purple, and brown curves denote EVH1 concentrations in descending order.
as §1

[3] = target: T1, ENAH EVH1 domain (monomeric, wild type); test: BLI steady state, immobilised SUMO-PCARE-Dual, EVH1 domain in solution
Description: as §2, §1

VASP EVH1 domain [4] = target: T2, VASP EVH1 domain (Homo sapiens (Human), UniProt P50552 1-114); test: as above
T2 construct: VASP numbering in the text counts from the Met at position 25 of the entry
T2 sequence (P50552 other isoform, or with tags, fused parts or gaps limits assumed): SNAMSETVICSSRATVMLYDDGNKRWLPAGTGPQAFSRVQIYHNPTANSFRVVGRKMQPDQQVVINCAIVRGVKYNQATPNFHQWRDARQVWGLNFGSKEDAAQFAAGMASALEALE
Description: as §2, §1

[5] = target: T3, EVL EVH1 domain (wild type) (Mus musculus (Mouse), UniProt P70429 1-116); test: as above
T3 construct: EVL numbering counts from the Met at position 25 of the entry; also called WT EVL EVH1 domain
T3 sequence (P70429 other isoform, or with tags, fused parts or gaps limits assumed): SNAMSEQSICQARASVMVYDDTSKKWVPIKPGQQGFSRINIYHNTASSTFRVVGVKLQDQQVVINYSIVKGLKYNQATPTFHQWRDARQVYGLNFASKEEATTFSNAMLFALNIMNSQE
Description: as §2, §1

[6] = target: T1, ENAH EVH1 domain (monomeric, wild type); test: BLI steady state, immobilised SUMO-peptide, ENAH EVH1 domain in solution
Description: as §2, §1

[7] = target: T1, ENAH EVH1 domain (monomeric, wild type); test: BLI dissociation phase, immobilised SUMO-peptide, ENAH EVH1 domain in solution
[8] = target: T4, EVL EVH1 swapped (residue swapped) (Homo sapiens (Human), UniProt Q9UI08 1-109); test: BLI, EVL swapped EVH1 domain in solution
T4 construct: also called EVL swapped; residue-swapped EVL EVH1 domain
T4 sequence (Q9UI08 other isoform, or with tags, fused parts or gaps limits assumed): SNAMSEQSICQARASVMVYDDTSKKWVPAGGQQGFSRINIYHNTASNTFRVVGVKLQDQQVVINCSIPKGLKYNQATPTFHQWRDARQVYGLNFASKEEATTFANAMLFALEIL

VASP EVH1 domain [9] = target: T2, VASP EVH1 domain; test: BLI steady state, immobilised SUMO-PCARE B, EVH1 domain in solution
[10] = target: T3, EVL EVH1 domain (wild type); test: as above
[11] = target: T3, EVL EVH1 domain (wild type); test: as above; remark: listed apart in the source

Row | Binder | Kd [1] [µM] | fold tighter binding than PCARE B [1] [fold] | fold slower dissociation than dual-motif peptide LPP [2] [fold] | Kd [3] [µM] | Kd (VASP EVH1 domain [4]) [µM] | Kd [5] [µM] | Kd [6] [µM] | koff [7] [s⁻¹] | Kd [8] [µM] | Kd (VASP EVH1 domain [9]) [µM] | Kd [10] [µM] | Kd [11] [µM]
1 | B1 | 0.05 | ~7 | ~100 | 0.048 | 28 | 21 | 0.048 | 0.045 | – | – | – | –
2 | B2 | – | – | – | – | – | – | – | – | 0.35 | 42 | 22 | 22
